In publication PMC5811534, “Neuropathic MORC2 mutations perturb GHKL ATPase dimerization dynamics and epigenetic silencing by multiple structural mechanisms” (Nature Communications, 2018):

What was measured:
[1] = biological target: the molecule itself; experiment: SEC-MALS; SEC-MALS with QELS, Superdex 200 (10/300), 293 K, gel filtration buffer (50 mM HEPES pH 7.5, 150 mM NaCl, 2 mM MgCl2, 0.25 mM TCEP); no nucleotide added; WT at 40 µM, S87L at 7.5 µM; monomer to dimer
[2] = biological target: the molecule itself; experiment: SEC-MALS; SEC-MALS with QELS, Superdex 200 (10/300), 293 K, gel filtration buffer; 2 mM Mg-AMPPNP added to the sample, 30 min on ice before injection; WT at 40 µM, T424R at 7.5 µM; monomer to dimer

B1: MORC2(1–603) S87L (domain or fragment, human, UniProt Q9Y6X9-1 1-603, looked up)
chain: MAFTNYSSLNRAQLTFEYLHTNSTTHEFLFGALAELVDNARDADATRIDIYAERREDLRGGFMLCFLDDGAGMDPSDAASVIQFGKLAKRTPESTQIGQYGNGLKSGSMRIGKDFILFTKKEDTMTCLFLSRTFHEEEGIDEVIVPLPTWNARTREPVTDNVEKFAIETELIYKYSPFRTEEEVMTQFMKIPGDSGTLVIIFNLKLMDNGEPELDIISNPRDIQMAETSPEGTKPERRSFRAYAAVLYIDPRMRIFIHGHKVQTKRLSCCLYKPRMYKYTSSRFKTRAEQEVKKAEHVARIAEEKAREAESKARTLEVRLGGDLTRDSRVMLRQVQNRAITLRREADVKKRIKEAKQRALKEPKELNFVFGVNIEHRDLDGMFIYNCSRLIKMYEKVGPQLEGGMACGGVVGVVDVPYLVLEPTHNKQDFADAKEYRHLLRAMGEHLAQYWKDIAIAQRGIIKFWDEFGYLSANWNQPPSSELRYKRRRAMEIPTTIQCDLCLKWRTLPFQLSSVEKDYPDTWVCSMNPDPEQDRCEASEQKQKVPLGTFRKDMKTQEEKQKQLTEKIRQQQEKLEALQKTTPIRSQADLKKLPLEVTTRPST
notes: also called S87L variant; source: Sf9 insect cells (baculovirus), purified as for wild type; not shown: tandem StrepII, N-terminal, cleaved
- stoichiometry N [1]: 2

B2: MORC2(1–603) T424R (domain or fragment, human, UniProt Q9Y6X9-1 1-603, looked up)
chain: MAFTNYSSLNRAQLTFEYLHTNSTTHEFLFGALAELVDNARDADATRIDIYAERREDLRGGFMLCFLDDGAGMDPSDAASVIQFGKSAKRTPESTQIGQYGNGLKSGSMRIGKDFILFTKKEDTMTCLFLSRTFHEEEGIDEVIVPLPTWNARTREPVTDNVEKFAIETELIYKYSPFRTEEEVMTQFMKIPGDSGTLVIIFNLKLMDNGEPELDIISNPRDIQMAETSPEGTKPERRSFRAYAAVLYIDPRMRIFIHGHKVQTKRLSCCLYKPRMYKYTSSRFKTRAEQEVKKAEHVARIAEEKAREAESKARTLEVRLGGDLTRDSRVMLRQVQNRAITLRREADVKKRIKEAKQRALKEPKELNFVFGVNIEHRDLDGMFIYNCSRLIKMYEKVGPQLEGGMACGGVVGVVDVPYLVLEPRHNKQDFADAKEYRHLLRAMGEHLAQYWKDIAIAQRGIIKFWDEFGYLSANWNQPPSSELRYKRRRAMEIPTTIQCDLCLKWRTLPFQLSSVEKDYPDTWVCSMNPDPEQDRCEASEQKQKVPLGTFRKDMKTQEEKQKQLTEKIRQQQEKLEALQKTTPIRSQADLKKLPLEVTTRPST
notes: also called T424R variant; source: Sf9 insect cells (baculovirus), purified as for wild type; not shown: tandem StrepII, N-terminal, cleaved
- stoichiometry N [2]: 2
